Source: patent US9119806B2, “Culturing circular ssDNA viruses for the production of vaccines” (priority 2007, dated 2015)

Columns and labels:
Assay type in all cases: cell-based, Porcine circovirus 2
[1] = system: PCV2-infected PK-15 cells; experiment: Number of PCV2-infected PK-15 cells (IPMA) after treatment with cytokines or natural cytokine sources; settings: for increase in PCV2-positive cells / lowest concentration inducing a significant effect on PCV2-positive cells: PK-15
Description: PK-15 cells were seeded and maintained in culture medium containing 5%-10% fetal bovine serum (FBS), 0.3 mg/ml glutamine, 100 U/ml penicillin, 0.1 mg/ml streptomycin, 0.1 mg/ml kanamycin dissolved in minimal essential medium (MEM) (Gibco BRL®, Grand Island, USA) or dissolved in RPMI-1640 (GIBCO BRL®, Grand Island, USA) containing 1% nonessential amino acids (100×; GIBCO BRL®, Grand Island, USA) and 1 mM sodium pyruvate (GIBCO BRL®, Grand Island, USA). Cells were seeded at a concentration of 150,000 cells per ml of medium. For the detection of total viral antigen positive cells, the cells were seeded in 96-well microtiter plates (Nunc) (15,000-20,000 cells per well). To detect the expression of specific viral antigens, cells were seeded on sterile cover slips in Leighton tubes (150,000 cells per tube) and finally progeny virus production assays were performed in 24-well plates containing […].
In order to use cells, more related to the target cells in vivo, the monocytic cell line 3D4/31 was used to confirm the effect of the different cytokines on the number of PCV2-infected cells. The 3D4/31 cell line is a porcine monomyeloid cell lines that was established following transfection of primary porcine alveolar macrophage cultures with plasmid pSV3neo, carrying genes for neomycin resistance and SV40 large T antigen. (Weingartl et al. (2002) J Virol Methods. 10, 203-216). These cells were maintained in a 1:1 mixture of RPMI-1640 (Invitrogen) and DMEM (Invitrogen) supplemented with 10% fetal bovine serum, 0.3 mg/ml glutamine, 100 U/ml penicillin, 0.1 mg/ml streptomycin, 0.1 mg/ml kanamycin and 1% non-essential amino acids 100× (GIBCO BRL®, Grand Island, USA). These experiments were also performed in 96-well plates containing the same number of cells. Furthermore, to monitor the effect of IFN-gamma on the entry of PCV2 virion-like particles was determined, 3D4/31 cells were seeded at 2×10^5 cells/ml of medium onto microscopic slides mounted with an 8 well cell culture silicone chamber (Vivascience AG, Hanover). In all inoculations, the same PCV2-strain (Stoon-1010) was used at a multiplicity of infection of 0.01. The virus was diluted in MEM and inoculated on the cell cultures by incubating cells and virus for 1 hour at 37° C. After 1 hour, the inoculum was removed, the cultures were washed twice with MEM and new culture medium was added.
The influence of the cytokines on the infection of PCV2 in PK-15 and 3D4/31 cells was determined by adding two-fold-dilution series of the cytokines to the medium of the cells before, during or after the inoculation. IL-1, IL-6, […] and IFN-alpha were used in concentrations ranging from 0.25-250 Units/ml (U/ml), IFN-gamma was used in concentrations ranging from 0.25-1000 U/ml and IL-10 was used in concentrations from 0.13-125 U/ml. Cell cultures were either pre-treated with the cytokines for 24 hours before inoculation, treated during the inoculation or the cytokines were added in the medium after the inoculation. After 36 hours of incubation at 37° C. in an environment supplemented with 5% CO2, the cells were fixed by drying and frozen at −20° C. The plates were stained with an immuno-peroxydase monolayer assay (IPMA) as described by Sanchez et al. (2003, Vet Microbiol 95, 15-25) and the number of PCV2-positive cells was counted by light microscopy. In each plate a control was inoculated with an equal dose of mock-treated PCV2 (treated with MEM without cytokines). The number of infected cells in this well was used as the reference and all results were expressed as a ratio to this reference.
Two-fold dilutions of the BAL-fluids of the PRCV and mock-inoculated pigs were added to the medium of PCV2-inoculated PK-15 cells after inoculation. Concentrations of the added BAL-fluids ranged from 1.25 to 5%. Supernatants of ConA and mock-stimulated PBMC's were also added to the culture medium of PK-15 cells after inoculation in concentrations ranging from […] to 50%. […]

[2] = system: PCV2 in PK-15 cells; experiment: Progeny PCV2 virus production in PK-15 cells with IFN-gamma
Description: The influence of IFN-gamma on the production of progeny virus in PCV2-infected cells was determined by inoculating PK-15 cells with the standard PCV2-stock. After the inoculation, culture medium was added supplemented with IFN-gamma (500 U/ml). At 0, 12, 24, 36, 48 and 72 hours post inoculation (hpi) the supernatant was collected. Subsequently the culture was washed once with 1 ml PBS. Both the supernatant and the washing fluid were centrifuged for 10 minutes at 15,000×g to pellet cells and debris. The centrifuged supernatant and washing fluids were combined and considered to contain the extracellular virus. Both pellets and cell cultures were freeze-thawed tree times and considered to contain the intracellular virus. Intra- and extracellular virus titres were determined by titration on PCV-negative PK-15 cells as described previously.

[3] = system: PCV2 capsids on 3D4/31 cells; experiment: Attachment of PCV2 capsids (virion-like particles) on 3D4/31 cells; settings: 4° C., 0-60 minutes
Description: The attachment of PCV2 capsids onto untreated 3D4/31 cells and 3D4/31 cells pre-treated with IFN-gamma was studied as described by Misinzo et al. (J Gen Virol. conditionally accepted for publication). Briefly, treated and untreated 3D4/31 cells were chilled on ice and washed before PCV2 capsids were added and allowed to attach for 0, 1, 5, 10, 15, 30 and 60 minutes at 4° C. Unbound PCV2 capsids were washed-off and cells were fixed with 3% (w/v) paraformaldehyde in phosphate-buffered saline with calcium and magnesium (PBS+) at room temperature for 10 minutes. In order to stain the PCV2 capsids, cells were incubated with biotin-conjugated anti-PCV2 swine polyclonal antibodies and streptavidin-FITC (Molecular Probes, Leiden, The Netherlands) for 1 hour at room temperature. The slides were mounted and analysed by acquisition of digital images of stained PCV2 capsids using a Leica TCS SP2 laser scanning spectral confocal system (Leica Microsystems GmbH, Heidelberg, Germany) linked to a Leica DM/IRB inverted microscope (Leica Microsystems GmbH, Wetzlar, Germany). Successive images from the apex to the base of a single cell were taken and merged. The number of PCV2 capsids attached per cell was counted for ten cells at each time point to establish their binding kinetics into 3D4/31 cells.

B1: IFN-gamma: Porcine interferon gamma purchased from R&D systems (protein, UniProt P17803 24-166, looked up)
Interferon gamma: QAPFFKEITILKDYFNASTSDVPNGGPLFLEILKNWKEESDKKIIQSQIVSFYFKFFEIFKDNQAIQRSMDVIKQDMFQRFLNGSSGKLNDFEKLIKIPVDNLQIQRKAISELIKVMNDLSPRSNLRKRKRSQTMFQGQRASK
increase in PCV2-positive cells ([1]; 1000 U/ml added after inoculation): 791±105% | increase in PCV2-positive cells ([1]; 1000 U/ml added before inoculation): 518±134% | increase in PCV2-positive cells ([1]; 1000 U/ml added during inoculation): 270±57% | lowest concentration inducing a significant effect on PCV2-positive cells ([1]; administered after inoculation): 2 U/ml | lowest concentration inducing a significant effect on PCV2-positive cells ([1]; administered before inoculation): 16 U/ml | lowest concentration inducing a significant effect on PCV2-positive cells ([1]; administered during inoculation): 2 U/ml | change in the number of PCV2-positive cells (in words) ([1]; PK-15 cells, cytokine dilution series, before, during or after inoculation, 36 h): dose-dependent increase | total PCV2 production higher compared to non-treated cells ([2]; 500 U/ml after inoculation, 72 hpi): 1.3 log10 TCID50 | extracellular and intracellular virus production (in words) ([2]; 500 U/ml, compared to non-treated control cells): increased | number of attached virion-like particles per cell and binding kinetics (in words) [3]: No differences were observed
